Test results as given in patent publication US6416738B1, “Pretargeting methods and compounds” (NeoRx Corporation, priority 1973, dated 2002).

Biological target: T1, NR-LU-10 antigen (Homo sapiens, UniProt P16422)
T1 construct: Positive NR-LU-10 tissue reactivity indicates NR-LU-10 antigen expression by such tissues; from tissue; host or cells: carcinoma and normal tissue specimens
T1 sequence (P16422 24-314): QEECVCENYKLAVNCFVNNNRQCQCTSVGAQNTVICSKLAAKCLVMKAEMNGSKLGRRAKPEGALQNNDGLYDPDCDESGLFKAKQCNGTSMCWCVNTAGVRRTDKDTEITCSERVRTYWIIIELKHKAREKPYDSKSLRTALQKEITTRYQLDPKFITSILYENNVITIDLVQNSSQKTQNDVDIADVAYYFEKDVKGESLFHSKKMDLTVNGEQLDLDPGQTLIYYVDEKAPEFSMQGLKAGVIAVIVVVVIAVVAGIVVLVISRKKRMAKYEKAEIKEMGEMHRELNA
Assay: NR-LU-10 reactivity with normal tissues (Table B)
Assay type: binding
Excerpt: Radioimmunoassays, immunoprecipitation and Fluorescence-Activated Cell Sorter (FACS) analysis were used to obtain reactivity profiles of NR-LU-10. The NR-LU-10 target antigen was present on either fixed cultured cells or in detergent extracts of various types of cancer cells. For example, the NR-LU-10 antigen is found in small cell lung, non-small cell lung, colon, breast, renal, ovarian, pancreatic, and other carcinoma tissues. Tumor reactivity of the NR-LU-10 antibody is set forth in Table A, while NR-LU-10 reactivity with normal tissues is set forth in Table B. The values in Table B are obtained as described below. Positive NR-LU-10 tissue reactivity indicates NR-LU-10 antigen expression by such tissues.
The tissue specimens were scored in accordance with three reactivity parameters: (1) the intensity of the reaction; (2) the uniformity of the reaction within the cell type; and (3) the percentage of cells reactive with the antibody. These three values are combined into a single weighted comparative value between 0 and 500, with 500 being the most intense reactivity. This comparative value facilitates comparison of different tissues. Table B includes a summary reactivity value, the number of tissue samples examined and the number of samples that reacted positively with NR-LU-10.

[1] = Adenoid: Lymphoid Follicle-Central
[2] = Adenoid: Lymphoid Follicle-Peripheral
[3] = Adrenal: Zona Fasciculata Cortex
[4] = Adrenal: Zona Glomerulosa Cortex
[5] = Adrenal: Zona Reticularis Cortex
[6] = Brain-Cerebellum: Axons, Myelinated
[7] = Brain-Cerebellum: Purkenje's Cells
[8] = Brain-Cerebrum: Axons, Myelinated
[9] = Brain-Midbrain: Axons, Myelinated
[10] = Gall Bladder: Mucosal Epithelium
[11] = Kidney: Distal Convoluted Tubules
[12] = Kidney: Proximal Convoluted Tubules
[13] = Liver: Central Lobular Hepatocyte
[14] = Lymph Node: Lymphoid Follicle-Central
[15] = Lymph Node: Lymphoid Follicle-Peripheral
[16] = Mammary Gland: Alveolar Epithelium

B1: NR-LU-10: 150 kilodalton IgG2b monoclonal antibody recognizing an approximately 40 kilodalton glycoprotein antigen expressed on most carcinomas (antibody, V domains shown)
VH: EVQLQQSGAELVKPGASVRLSCTASGFNIKDTYMHWVIERPEQGLEWIGRIDPANGNTKCDPKFQGKATITADTSSNTAYLQLSSLTSEDTAVYYCSREVLTGTWSLDYWGQGTSVTVSS
VL: DIQMIQSPSSMFASLGDRVSLSCRASQGIRGNLDWYQQKPGGTIKLLIYSTSNLNSGVPSRFSGSGSGSDYSLTISSLDSEDFADYYCLQRNAYPYTFGGGTKLEIK
# Pos/Exam (Adenoid): 3/3
Summary Reactivity (Adenoid): 433
# Pos/Exam (Adenoid: Epithelium): 0/3
Summary Reactivity (Adenoid: Epithelium): 0
# Pos/Exam [1]: 0/3
Summary Reactivity [1]: 0
# Pos/Exam [2]: 2/2
Summary Reactivity [2]: 400
# Pos/Exam (Adipose Tissue: Fat Cells): 0/3
Summary Reactivity (Adipose Tissue: Fat Cells): 0
# Pos/Exam (Adrenal: Medulla): 0/3
Summary Reactivity (Adrenal: Medulla): 0
# Pos/Exam [3]: 0/3
Summary Reactivity [3]: 0
# Pos/Exam [4]: 0/3
Summary Reactivity [4]: 0
# Pos/Exam [5]: 0/3
Summary Reactivity [5]: 0
# Pos/Exam (Aorta: Elastic Interna): 0/3
Summary Reactivity (Aorta: Elastic Interna): 0
# Pos/Exam (Aorta: Endothelium): 0/3
Summary Reactivity (Aorta: Endothelium): 0
# Pos/Exam (Aorta: Tunica Adventitia): 0/3
Summary Reactivity (Aorta: Tunica Adventitia): 0
# Pos/Exam (Aorta: Tunica Media): 0/3
Summary Reactivity (Aorta: Tunica Media): 0
# Pos/Exam [6]: 0/3
Summary Reactivity [6]: 0
# Pos/Exam (Brain-Cerebellum: Microglia): 0/3
Summary Reactivity (Brain-Cerebellum: Microglia): 0
# Pos/Exam (Brain-Cerebellum: Neurons): 0/3
Summary Reactivity (Brain-Cerebellum: Neurons): 0
# Pos/Exam [7]: 0/3
Summary Reactivity [7]: 0
# Pos/Exam [8]: 0/3
Summary Reactivity [8]: 0
# Pos/Exam (Brain-Cerebrum: Microglia): 0/3
Summary Reactivity (Brain-Cerebrum: Microglia): 0
# Pos/Exam (Brain-Cerebrum: Neurons): 0/3
Summary Reactivity (Brain-Cerebrum: Neurons): 0
# Pos/Exam [9]: 0/3
Summary Reactivity [9]: 0
# Pos/Exam (Brain-Midbrain: Microglia): 0/3
Summary Reactivity (Brain-Midbrain: Microglia): 0
# Pos/Exam (Brain-Midbrain: Neurons): 0/3
Summary Reactivity (Brain-Midbrain: Neurons): 0
# Pos/Exam (Colon: Mucosal Epithelium): 3/3
Summary Reactivity (Colon: Mucosal Epithelium): 500
# Pos/Exam (Colon: Muscularis Externa): 0/3
Summary Reactivity (Colon: Muscularis Externa): 0
# Pos/Exam (Colon: Muscularis Mucosa): 0/3
Summary Reactivity (Colon: Muscularis Mucosa): 0
# Pos/Exam (Colon: Nerve Ganglia): 0/3
Summary Reactivity (Colon: Nerve Ganglia): 0
# Pos/Exam (Colon: Serosa): 0/1
Summary Reactivity (Colon: Serosa): 0
# Pos/Exam (Duodenum: Mucosal Epithelium): 3/3
Summary Reactivity (Duodenum: Mucosal Epithelium): 500
# Pos/Exam (Duodenum: Muscularis Mucosa): 0/3
Summary Reactivity (Duodenum: Muscularis Mucosa): 0
# Pos/Exam (Epididymis: Epithelium): 3/3
Summary Reactivity (Epididymis: Epithelium): 419
# Pos/Exam (Epididymis: Smooth Muscle): 0/3
Summary Reactivity (Epididymis: Smooth Muscle): 0
# Pos/Exam (Epididymis: Spermatozoa): 0/1
Summary Reactivity (Epididymis: Spermatozoa): 0
# Pos/Exam (Esophagus: Epithelium): 3/3
Summary Reactivity (Esophagus: Epithelium): 86
# Pos/Exam (Esophagus: Mucosal Gland): 2/2
Summary Reactivity (Esophagus: Mucosal Gland): 450
# Pos/Exam (Esophagus: Smooth Muscle): 0/3
Summary Reactivity (Esophagus: Smooth Muscle): 0
# Pos/Exam [10]: 0/3
Summary Reactivity [10]: 467
# Pos/Exam (Gall Bladder: Smooth Muscle): 0/3
Summary Reactivity (Gall Bladder: Smooth Muscle): 0
# Pos/Exam (Heart: Myocardium): 0/3
Summary Reactivity (Heart: Myocardium): 0
# Pos/Exam (Heart: Serosa): 0/1
Summary Reactivity (Heart: Serosa): 0
# Pos/Exam (Ileum: Lymph Node): 0/2
Summary Reactivity (Ileum: Lymph Node): 0
# Pos/Exam (Ileum: Mucosal Epithelium): 0/2
Summary Reactivity (Ileum: Mucosal Epithelium): 0
# Pos/Exam (Ileum: Muscularis Externa): 0/1
Summary Reactivity (Ileum: Muscularis Externa): 0
# Pos/Exam (Ileum: Muscularis Mucosa): 0/2
Summary Reactivity (Ileum: Muscularis Mucosa): 0
# Pos/Exam (Ileum: Nerve Ganglia): 0/1
Summary Reactivity (Ileum: Nerve Ganglia): 0
# Pos/Exam (Ileum: Serosa): 0/1
Summary Reactivity (Ileum: Serosa): 0
# Pos/Exam (Jejunum: Lymph Node): 0/1
Summary Reactivity (Jejunum: Lymph Node): 0
# Pos/Exam (Jejunum: Mucosal Epithelium): 2/2
Summary Reactivity (Jejunum: Mucosal Epithelium): 400
# Pos/Exam (Jejunum: Muscularis Externa): 0/2
Summary Reactivity (Jejunum: Muscularis Externa): 0
# Pos/Exam (Jejunum: Muscularis Mucosa): 0/2
Summary Reactivity (Jejunum: Muscularis Mucosa): 0
# Pos/Exam (Jejunum: Nerve Ganglia): 0/2
Summary Reactivity (Jejunum: Nerve Ganglia): 0
# Pos/Exam (Jejunum: Serosa): 0/1
Summary Reactivity (Jejunum: Serosa): 0
# Pos/Exam (Kidney: Collecting Tubules): 2/3
Summary Reactivity (Kidney: Collecting Tubules): 160
# Pos/Exam [11]: 3/3
Summary Reactivity [11]: 500
# Pos/Exam (Kidney: Glomerular Eipithelium): 0/3
Summary Reactivity (Kidney: Glomerular Eipithelium): 0
# Pos/Exam (Kidney: Mesangial): 0/3
Summary Reactivity (Kidney: Mesangial): 0
# Pos/Exam [12]: 3/3
Summary Reactivity [12]: 500
# Pos/Exam (Liver: Bile Duct): 3/3
Summary Reactivity (Liver: Bile Duct): 500
# Pos/Exam [13]: 1/3
Summary Reactivity [13]: 4
# Pos/Exam (Liver: Kupffer Cells): 0/3
Summary Reactivity (Liver: Kupffer Cells): 0
# Pos/Exam (Liver: Periportal Hepatocyte): 1/3
Summary Reactivity (Liver: Periportal Hepatocyte): 40
# Pos/Exam (Lung: Alveolar Macrophage): 0/3
Summary Reactivity (Lung: Alveolar Macrophage): 0
# Pos/Exam (Lung: Bronchial Epithelium): 0/2
Summary Reactivity (Lung: Bronchial Epithelium): 0
# Pos/Exam (Lung: Bronchial Smooth Muscle): 0/2
Summary Reactivity (Lung: Bronchial Smooth Muscle): 0
# Pos/Exam (Lung: Pneumocyte Type I): 3/3
Summary Reactivity (Lung: Pneumocyte Type I): 354
# Pos/Exam (Lung: Pneumocyte Type II): 3/3
Summary Reactivity (Lung: Pneumocyte Type II): 387
# Pos/Exam [14]: 0/3
Summary Reactivity [14]: 0
# Pos/Exam [15]: 0/3
Summary Reactivity [15]: 0
# Pos/Exam [16]: 3/3
Summary Reactivity [16]: 500
# Pos/Exam (Mammary Gland: Duct Epithelium): 3/3
Summary Reactivity (Mammary Gland: Duct Epithelium): 500
# Pos/Exam (Mammary Gland: Myoepithelium): 0/3
Summary Reactivity (Mammary Gland: Myoepithelium): 0
# Pos/Exam (Muscle Skeletal: Muscle Fiber): 0/3
Summary Reactivity (Muscle Skeletal: Muscle Fiber): 0
# Pos/Exam (Nerve: Axon, Myelinated): 0/2
Summary Reactivity (Nerve: Axon, Myelinated): 0
# Pos/Exam (Nerve: Endoneurium): 0/2
